Measurements reported in patent US20140087995A1 (published 2014).
Numbering of substitutions follows the chain as printed. Numbered stars: 1 amine (or outer) side, 2 acyl side, 3 side chain; on linkers, the order of the positions; unused ones are H or OH. Bridge positions count the residues as written; N and C are the ends. * marks the point of attachment. C20 diacid = O=C(O)CCCCCCCCCCCCCCCCCCC(=O)*; γGlu = O=C(O)[C@H](CCC(=O)[*:2])N[*:1]; AEEA = NCCOCCOCC(=O)O

T1: human calcitonin receptor (human, UniProt P30988 25-474)
T1 construct: whole, on cells; Used as membranes prepared from the transfected cells (Assay VII); also called hCTR; hCT
T1 sequence (looked up): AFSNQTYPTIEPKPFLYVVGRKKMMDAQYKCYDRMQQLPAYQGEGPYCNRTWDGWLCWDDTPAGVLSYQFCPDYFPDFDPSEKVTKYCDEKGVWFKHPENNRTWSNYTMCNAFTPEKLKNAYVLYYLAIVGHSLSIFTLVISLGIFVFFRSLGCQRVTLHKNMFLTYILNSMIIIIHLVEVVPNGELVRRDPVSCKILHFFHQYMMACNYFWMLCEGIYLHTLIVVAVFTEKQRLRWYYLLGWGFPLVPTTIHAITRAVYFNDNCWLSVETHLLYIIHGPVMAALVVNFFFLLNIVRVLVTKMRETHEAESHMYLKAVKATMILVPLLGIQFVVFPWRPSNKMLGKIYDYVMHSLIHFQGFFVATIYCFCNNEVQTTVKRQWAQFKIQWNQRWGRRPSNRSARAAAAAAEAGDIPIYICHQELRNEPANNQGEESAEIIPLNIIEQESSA

T2: rat calcitonin receptor (rat, UniProt P32214 25-516)
T2 construct: whole, on cells; Used as membranes prepared from the transfected cells; also called rCTR; rat calcitonin (a) receptor
T2 sequence (looked up): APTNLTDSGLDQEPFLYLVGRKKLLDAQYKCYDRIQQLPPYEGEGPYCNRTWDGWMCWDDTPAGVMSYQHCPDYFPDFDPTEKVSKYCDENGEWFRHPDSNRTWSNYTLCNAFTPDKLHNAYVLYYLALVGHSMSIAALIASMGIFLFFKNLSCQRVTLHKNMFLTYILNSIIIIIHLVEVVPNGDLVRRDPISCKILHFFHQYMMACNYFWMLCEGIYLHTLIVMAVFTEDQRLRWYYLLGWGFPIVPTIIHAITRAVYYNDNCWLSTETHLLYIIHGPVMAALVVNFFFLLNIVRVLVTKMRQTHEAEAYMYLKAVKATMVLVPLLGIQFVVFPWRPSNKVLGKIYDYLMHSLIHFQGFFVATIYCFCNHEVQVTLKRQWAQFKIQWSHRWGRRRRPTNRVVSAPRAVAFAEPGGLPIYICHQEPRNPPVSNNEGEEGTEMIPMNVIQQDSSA

T3: rat amylin receptor (rat calcitonin receptor + rat RAMP 3) (rat, UniProt P32214 25-516; Q9JJ73 23-147)
T3 construct: whole, on cells; Used as membranes prepared from the transfected cells; also called rAmylin-R; rat amylin 3(a) receptor
T3 sequence (looked up) 1: T2 sequence (looked up)
T3 sequence (looked up) 2: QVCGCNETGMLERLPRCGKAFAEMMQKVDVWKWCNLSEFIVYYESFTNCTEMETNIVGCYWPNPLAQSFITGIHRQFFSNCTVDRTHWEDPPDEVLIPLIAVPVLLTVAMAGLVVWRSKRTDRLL

B1: N^α1-[2-[2-[2-[[2-[2-[2-[[(4S)-4-carboxy-4-(19-carboxynonadecanoylamino)butanoyl]amino]ethoxy]ethoxy]acetyl]amino]ethoxy]ethoxy]acetyl]-[Glu14,Arg17,Pro21,Pro27 … (peptide)
peptide: KCNTATCATQRLAEFLRHSSPNFGAIPSSTNVGSNTY
modifications: C20 diacid-gGlu-2xOEG acylated on the alpha amino group of the N-terminal residue (Lys 1); disulfide Cys2-Cys7; C-terminal amide
notes: Derivative of human amylin; also called compound 19
B2: N^α1-[2-[2-[2-[[2-[2-[2-[[(4S)-4-carboxy-4-(19-carboxynonadecanoylamino)butanoyl]amino]ethoxy]ethoxy]acetyl]amino]ethoxy]ethoxy]acetyl]-[Glu14,Arg17,Pro21,Pro27 … (peptide)
peptide: {C20 diacid-γGlu-AEEA-AEEA}-KCNTATCATQRLAEFLRHSSPNFGAIPSSTNVGSNTP-NH2
modifications: disulfide 2-7
SMILES: CC[C@H](C)[C@H](NC(=O)[C@H](C)NC(=O)CNC(=O)[C@H](Cc1ccccc1)NC(=O)[C@H](CC(N)=O)NC(=O)[C@@H]1CCCN1C(=O)[C@H](CO)NC(=O)[C@H](CO)NC(=O)[C@H](Cc1c[nH]cn1)NC(=O)[C@H](CCCNC(=N)N)NC(=O)[C@H](CC(C)C)NC(=O)[C@H](Cc1ccccc1)NC(=O)[C@H](CCC(=O)O)NC(=O)[C@H](C)NC(=O)[C@H](CC(C)C)NC(=O)[C@H](CCCNC(=N)N)NC(=O)[C@H](CCC(N)=O)NC(=O)[C@@H](NC(=O)[C@H](C)NC(=O)[C@@H]1CSSC[C@H](NC(=O)[C@H](CCCCN)NC(=O)COCCOCCNC(=O)COCCOCCNC(=O)CC[C@H](NC(=O)CCCCCCCCCCCCCCCCCCC(=O)O)C(=O)O)C(=O)N[C@@H](CC(N)=O)C(=O)N[C@@H]([C@@H](C)O)C(=O)N[C@@H](C)C(=O)N[C@@H]([C@@H](C)O)C(=O)N1)[C@@H](C)O)C(=O)N1CCC[C@H]1C(=O)N[C@@H](CO)C(=O)N[C@@H](CO)C(=O)N[C@H](C(=O)N[C@@H](CC(N)=O)C(=O)N[C@H](C(=O)NCC(=O)N[C@@H](CO)C(=O)N[C@@H](CC(N)=O)C(=O)N[C@H](C(=O)N1CCC[C@H]1C(N)=O)[C@@H](C)O)C(C)C)[C@@H](C)O
notes: Derivative of human amylin; also called compound 20
B3: N^α1-[2-[2-[2-[[2-[2-[2-[[(4S)-4-carboxy-4-(19-carboxynonadecanoylamino)butanoyl]amino]ethoxy]ethoxy]acetyl]amino]ethoxy]ethoxy]acetyl]-[Arg17,Pro21,Pro27]-h-am … (peptide)
peptide: B1 peptide with E14N
modifications: C20 diacid-gGlu-2xOEG acylated on the alpha amino group of the N-terminal residue (Lys 1); disulfide Cys2-Cys7; C-terminal amide
notes: Derivative of human amylin; also called compound 24
B4: N^α1-[(4S)-4-carboxy-4-(19-carboxynonadecanoylamino)butanoyl]-[Arg17,Pro21,Pro27,Glu35]-h-amylin (peptide)
peptide: B1 peptide with E14N, N35E
modifications: C20 diacid-gGlu acylated on the alpha amino group of the N-terminal residue (Lys 1); disulfide Cys2-Cys7; C-terminal amide
notes: Derivative of human amylin; also called compound 23
B5: N^α1-[(4S)-4-carboxy-4-(19-carboxynonadecanoylamino)butanoyl]-[Arg17,Pro21,Pro27,Pro34,Glu35]-h-amylin (peptide)
peptide: {C20 diacid-γGlu}-KCNTATCATQRLANFLRHSSPNFGAIPSSTNVGPETY-NH2
modifications: disulfide 2-7
SMILES: CC[C@H](C)[C@H](NC(=O)[C@H](C)NC(=O)CNC(=O)[C@H](Cc1ccccc1)NC(=O)[C@H](CC(N)=O)NC(=O)[C@@H]1CCCN1C(=O)[C@H](CO)NC(=O)[C@H](CO)NC(=O)[C@H](Cc1c[nH]cn1)NC(=O)[C@H](CCCNC(=N)N)NC(=O)[C@H](CC(C)C)NC(=O)[C@H](Cc1ccccc1)NC(=O)[C@H](CC(N)=O)NC(=O)[C@H](C)NC(=O)[C@H](CC(C)C)NC(=O)[C@H](CCCNC(=N)N)NC(=O)[C@H](CCC(N)=O)NC(=O)[C@@H](NC(=O)[C@H](C)NC(=O)[C@@H]1CSSC[C@H](NC(=O)[C@H](CCCCN)NC(=O)CC[C@H](NC(=O)CCCCCCCCCCCCCCCCCCC(=O)O)C(=O)O)C(=O)N[C@@H](CC(N)=O)C(=O)N[C@@H]([C@@H](C)O)C(=O)N[C@@H](C)C(=O)N[C@@H]([C@@H](C)O)C(=O)N1)[C@@H](C)O)C(=O)N1CCC[C@H]1C(=O)N[C@@H](CO)C(=O)N[C@@H](CO)C(=O)N[C@H](C(=O)N[C@@H](CC(N)=O)C(=O)N[C@H](C(=O)NCC(=O)N1CCC[C@H]1C(=O)N[C@@H](CCC(=O)O)C(=O)N[C@H](C(=O)N[C@@H](Cc1ccc(O)cc1)C(N)=O)[C@@H](C)O)C(C)C)[C@@H](C)O
notes: Derivative of human amylin; also called compound 29
B6: N^α1-[(4S)-4-carboxy-4-(19-carboxynonadecanoylamino)butanoyl]-[Arg17,Pro21,Pro27,Arg34]-h-amylin (peptide)
peptide: B1 peptide with E14N, S34R
modifications: C20 diacid-gGlu acylated on the alpha amino group of the N-terminal residue (Lys 1); disulfide Cys2-Cys7; C-terminal amide
notes: Derivative of human amylin; also called compound 39
B7: N^α1-[(4S)-4-carboxy-4-(19-carboxynonadecanoylamino)butanoyl]-[Arg17,Pro21,Pro27,Pro31,Glu35]-h-amylin (peptide)
peptide: {C20 diacid-γGlu}-KCNTATCATQRLANFLRHSSPNFGAIPSSTPVGSETY-NH2
modifications: disulfide 2-7
SMILES: CC[C@H](C)[C@H](NC(=O)[C@H](C)NC(=O)CNC(=O)[C@H](Cc1ccccc1)NC(=O)[C@H](CC(N)=O)NC(=O)[C@@H]1CCCN1C(=O)[C@H](CO)NC(=O)[C@H](CO)NC(=O)[C@H](Cc1c[nH]cn1)NC(=O)[C@H](CCCNC(=N)N)NC(=O)[C@H](CC(C)C)NC(=O)[C@H](Cc1ccccc1)NC(=O)[C@H](CC(N)=O)NC(=O)[C@H](C)NC(=O)[C@H](CC(C)C)NC(=O)[C@H](CCCNC(=N)N)NC(=O)[C@H](CCC(N)=O)NC(=O)[C@@H](NC(=O)[C@H](C)NC(=O)[C@@H]1CSSC[C@H](NC(=O)[C@H](CCCCN)NC(=O)CC[C@H](NC(=O)CCCCCCCCCCCCCCCCCCC(=O)O)C(=O)O)C(=O)N[C@@H](CC(N)=O)C(=O)N[C@@H]([C@@H](C)O)C(=O)N[C@@H](C)C(=O)N[C@@H]([C@@H](C)O)C(=O)N1)[C@@H](C)O)C(=O)N1CCC[C@H]1C(=O)N[C@@H](CO)C(=O)N[C@@H](CO)C(=O)N[C@H](C(=O)N1CCC[C@H]1C(=O)N[C@H](C(=O)NCC(=O)N[C@@H](CO)C(=O)N[C@@H](CCC(=O)O)C(=O)N[C@H](C(=O)N[C@@H](Cc1ccc(O)cc1)C(N)=O)[C@@H](C)O)C(C)C)[C@@H](C)O
notes: Derivative of human amylin; also called compound 28
B8: N^α1-[(4S)-4-carboxy-4-(19-carboxynonadecanoylamino)butanoyl]-[Arg17,Pro21,Pro27,Lys35]-h-amylin (peptide)
peptide: B1 peptide with E14N, N35K
modifications: C20 diacid-gGlu acylated on the alpha amino group of the N-terminal residue (Lys 1); disulfide Cys2-Cys7; C-terminal amide
notes: Derivative of human amylin; also called compound 34
B9: N^α1-[(4S)-4-carboxy-4-(19-carboxynonadecanoylamino)butanoyl]-[Arg17,Pro21,Pro27,His34]-h-amylin (peptide)
peptide: B1 peptide with E14N, S34H
modifications: C20 diacid-gGlu acylated on the alpha amino group of the N-terminal residue (Lys 1); disulfide Cys2-Cys7; C-terminal amide
notes: Derivative of human amylin; also called compound 40

Biological target: T1, human calcitonin receptor
Test: ratio IC50 human calcitonin receptor / IC50 human amylin receptor (Assays VII and V)
Method: The resulting pellet was resuspended, homogenized and centrifuged (20.000 rpm, 15 min) in a buffer containing 20 mM Na-HEPES and 0.1 mM EDTA (pH 7.4, buffer 2). The resulting pellet was resuspended in buffer 2 and protein concentration was measured (BCA protein Assay, Pierce). The homogenate was kept cold during the whole procedure. The membranes were kept at −80° C. until use. The assay was performed in a 384 well Optiplate (PerkinElmer) in a total volume of 40 ul. Membranes were mixed with SPA beads. Final concentration of membranes 35 ng/μL final and SPA beads was 0.05 mg/well. Test-compounds were dissolved in DMSO and further diluted in assay buffer (50 mM Hepes, pH 7.4, 1 mM CaCl2, 5 mM MgCl₂, 0.1% OA and 0.02% Tween20). […] The final mixture was incubated with shaking at 400 rpm for 120 min at 25° C. prior to centrifugation (1500 rpm, 10 min). Samples were analyzed on TopCounter™ (Packard). The IC₅₀ was calculated using (one site binding competition analysis) GraphPad Prism5 as a measure of receptor affinity.
Membranes were prepared in the following way; the cells were rinsed with PBS and incubated with Versene for approximately 5 min before harvesting. The cells were flushed with PBS and the cell-suspension was centrifuged for 5 min at 1000 rpm. Cells were homogenized (Ultrathurrax) in a buffer containing 20 mM Na-HEPES and 10 mM EDTA (pH 7.4) and centrifuged at 20.000 rpm for 15 min. The resulting pellet was resuspended, homogenized and centrifuged (20.000 rpm, 15 min) in a buffer containing 20 mM Na-HEPES and 0.1 mM EDTA (pH 7.4, buffer 2). The resulting pellet was resuspended in buffer 2 and protein concentration was measured (BCA protein Assay, Pierce). The homogenate was kept cold during the whole procedure. The membranes were kept at −80° C. until use. Assay was performed in a 384 well Optiplate (PerkinElmer) in a total volume of 40 ul. Membranes were mixed with SPA beads.

Binder | Ratio hCT/hAmylin binding
B1 | 36.7
B2 | 3.6
B3 | 90
B4 | 25
B5 | 13.9
B6 | 29
B7 | 20.5
B8 | 64.4
B9 | 31.1

Biological target: T2, rat calcitonin receptor
Test: ratio IC50 rat calcitonin receptor / IC50 rat amylin receptor (Assays VIII and VI)

Binder | Ratio rCT/rAmylin binding
B1 | 93.6
B2 | 6.4
B3 | 116
B4 | 71.3
B5 | 67
B6 | 54.5
B7 | 44.9
B8 | 52
B9 | 46.2

Biological target: T2, rat calcitonin receptor
Test: SPA competition with 125I-calcitonin, membranes of BHK cells with rat calcitonin receptor (Assay VIII)

Binder | IC50 [nM]
B1 | 95.6
B2 | 4.43
B3 | 350
B4 | 79.9
B5 | 21.6
B6 | 96.4
B7 | 54.9
B8 | 89.2
B9 | 69.2

Biological target: T3, rat amylin receptor (rat calcitonin …)
Test: SPA competition with 125I-rat amylin, membranes of BHK cells with rat calcitonin receptor + rat RAMP3 (Assay VI)

Binder | IC50 [nM]
B1 | 1.02
B2 | 0.696
B3 | 3.01
B4 | 1.12
B5 | 0.322
B6 | 1.77
B7 | 1.22
B8 | 1.72
B9 | 1.5
